Laboratory results reported in patent US20140087995A1 (published 2014).
Numbered stars: 1 amine (or outer) side, 2 acyl side, 3 side chain; on linkers, the order of the positions; unused ones are H or OH. Bridge positions count the residues as written; N and C are the ends. Side chains are listed from the residue outwards. Ends that are not written are not given here. * marks the point of attachment. C20 diacid = O=C(O)CCCCCCCCCCCCCCCCCCC(=O)*; γGlu = O=C(O)[C@H](CCC(=O)[*:2])N[*:1]; AEEA = NCCOCCOCC(=O)O

T1: human amylin receptor (human, UniProt P30988 25-474; O60896 24-148, limits assumed)
T1 construct: whole, on cells; Calcitonin receptor plus RAMP-3 gives the amylin 3(a) receptor; membranes of Amylin 3(a)/CRE-luc cells were used; also called hAmylin-R; hAmylinR
T1 sequence (looked up) 1: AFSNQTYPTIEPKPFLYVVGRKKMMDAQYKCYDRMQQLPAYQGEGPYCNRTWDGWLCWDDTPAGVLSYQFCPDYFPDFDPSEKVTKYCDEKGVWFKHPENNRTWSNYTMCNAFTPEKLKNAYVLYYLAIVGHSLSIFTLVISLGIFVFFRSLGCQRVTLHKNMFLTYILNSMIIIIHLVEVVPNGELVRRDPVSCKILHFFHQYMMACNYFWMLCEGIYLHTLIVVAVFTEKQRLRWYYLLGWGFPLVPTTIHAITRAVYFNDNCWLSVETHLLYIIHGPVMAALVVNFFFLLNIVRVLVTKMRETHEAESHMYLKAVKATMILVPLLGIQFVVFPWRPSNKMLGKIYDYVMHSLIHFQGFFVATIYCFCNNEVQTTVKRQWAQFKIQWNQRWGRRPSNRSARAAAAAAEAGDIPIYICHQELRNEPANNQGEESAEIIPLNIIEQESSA
T1 sequence (looked up) 2: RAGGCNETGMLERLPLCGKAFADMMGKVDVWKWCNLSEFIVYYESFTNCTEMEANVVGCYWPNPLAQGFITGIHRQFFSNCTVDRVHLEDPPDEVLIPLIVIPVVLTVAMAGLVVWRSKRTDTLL

B1: N^ε1-[2-[2-[2-[[(4S)-4-carboxy-4-(19-carboxynonadecanoylamino)butanoyl]amino]ethoxy]ethoxy]acetyl]-[Arg17,Pro21,Pro27,Glu35]-h-amylin (peptide)
peptide: K([AEEA-γGlu-C20 diacid])CNTATCATQRLANFLRHSSPNFGAIPSSTNVGSETY-NH2
modifications: disulfide 2-7; N-terminus assumed
SMILES: CC[C@H](C)[C@H](NC(=O)[C@H](C)NC(=O)CNC(=O)[C@H](Cc1ccccc1)NC(=O)[C@H](CC(N)=O)NC(=O)[C@@H]1CCCN1C(=O)[C@H](CO)NC(=O)[C@H](CO)NC(=O)[C@H](Cc1c[nH]cn1)NC(=O)[C@H](CCCNC(=N)N)NC(=O)[C@H](CC(C)C)NC(=O)[C@H](Cc1ccccc1)NC(=O)[C@H](CC(N)=O)NC(=O)[C@H](C)NC(=O)[C@H](CC(C)C)NC(=O)[C@H](CCCNC(=N)N)NC(=O)[C@H](CCC(N)=O)NC(=O)[C@@H](NC(=O)[C@H](C)NC(=O)[C@@H]1CSSC[C@H](NC(=O)[C@@H](N)CCCCNC(=O)COCCOCCNC(=O)CC[C@H](NC(=O)CCCCCCCCCCCCCCCCCCC(=O)O)C(=O)O)C(=O)N[C@@H](CC(N)=O)C(=O)N[C@@H]([C@@H](C)O)C(=O)N[C@@H](C)C(=O)N[C@@H]([C@@H](C)O)C(=O)N1)[C@@H](C)O)C(=O)N1CCC[C@H]1C(=O)N[C@@H](CO)C(=O)N[C@@H](CO)C(=O)N[C@H](C(=O)N[C@@H](CC(N)=O)C(=O)N[C@H](C(=O)NCC(=O)N[C@@H](CO)C(=O)N[C@@H](CCC(=O)O)C(=O)N[C@H](C(=O)N[C@@H](Cc1ccc(O)cc1)C(N)=O)[C@@H](C)O)C(C)C)[C@@H](C)O
notes: also called 17R, 21P, 27P, 35E
B2: N^ε1-[2-[2-[2-[[(4S)-4-carboxy-4-(19-carboxynonadecanoylamino)butanoyl]amino]ethoxy]ethoxy]acetyl]-[Arg17,Pro21,Pro27,Pro31,His35]-h-amylin (peptide)
peptide: K([AEEA-γGlu-C20 diacid])CNTATCATQRLANFLRHSSPNFGAIPSSTPVGSHTY-NH2
modifications: disulfide 2-7; N-terminus assumed
SMILES: CC[C@H](C)[C@H](NC(=O)[C@H](C)NC(=O)CNC(=O)[C@H](Cc1ccccc1)NC(=O)[C@H](CC(N)=O)NC(=O)[C@@H]1CCCN1C(=O)[C@H](CO)NC(=O)[C@H](CO)NC(=O)[C@H](Cc1c[nH]cn1)NC(=O)[C@H](CCCNC(=N)N)NC(=O)[C@H](CC(C)C)NC(=O)[C@H](Cc1ccccc1)NC(=O)[C@H](CC(N)=O)NC(=O)[C@H](C)NC(=O)[C@H](CC(C)C)NC(=O)[C@H](CCCNC(=N)N)NC(=O)[C@H](CCC(N)=O)NC(=O)[C@@H](NC(=O)[C@H](C)NC(=O)[C@@H]1CSSC[C@H](NC(=O)[C@@H](N)CCCCNC(=O)COCCOCCNC(=O)CC[C@H](NC(=O)CCCCCCCCCCCCCCCCCCC(=O)O)C(=O)O)C(=O)N[C@@H](CC(N)=O)C(=O)N[C@@H]([C@@H](C)O)C(=O)N[C@@H](C)C(=O)N[C@@H]([C@@H](C)O)C(=O)N1)[C@@H](C)O)C(=O)N1CCC[C@H]1C(=O)N[C@@H](CO)C(=O)N[C@@H](CO)C(=O)N[C@H](C(=O)N1CCC[C@H]1C(=O)N[C@H](C(=O)NCC(=O)N[C@@H](CO)C(=O)N[C@@H](Cc1c[nH]cn1)C(=O)N[C@H](C(=O)N[C@@H](Cc1ccc(O)cc1)C(N)=O)[C@@H](C)O)C(C)C)[C@@H](C)O
notes: also called 17R, 21P, 27P, 31P, 35H
B3: N^ε1-[2-[2-[2-[[(4S)-4-carboxy-4-(19-carboxynonadecanoylamino)butanoyl]amino]ethoxy]ethoxy]acetyl]-[Arg17,Pro21,Pro27,Pro29,Pro31]-h-amylin (peptide)
peptide: K([AEEA-γGlu-C20 diacid])CNTATCATQRLANFLRHSSPNFGAIPSPTPVGSNTY-NH2
modifications: disulfide 2-7; N-terminus assumed
SMILES: CC[C@H](C)[C@H](NC(=O)[C@H](C)NC(=O)CNC(=O)[C@H](Cc1ccccc1)NC(=O)[C@H](CC(N)=O)NC(=O)[C@@H]1CCCN1C(=O)[C@H](CO)NC(=O)[C@H](CO)NC(=O)[C@H](Cc1c[nH]cn1)NC(=O)[C@H](CCCNC(=N)N)NC(=O)[C@H](CC(C)C)NC(=O)[C@H](Cc1ccccc1)NC(=O)[C@H](CC(N)=O)NC(=O)[C@H](C)NC(=O)[C@H](CC(C)C)NC(=O)[C@H](CCCNC(=N)N)NC(=O)[C@H](CCC(N)=O)NC(=O)[C@@H](NC(=O)[C@H](C)NC(=O)[C@@H]1CSSC[C@H](NC(=O)[C@@H](N)CCCCNC(=O)COCCOCCNC(=O)CC[C@H](NC(=O)CCCCCCCCCCCCCCCCCCC(=O)O)C(=O)O)C(=O)N[C@@H](CC(N)=O)C(=O)N[C@@H]([C@@H](C)O)C(=O)N[C@@H](C)C(=O)N[C@@H]([C@@H](C)O)C(=O)N1)[C@@H](C)O)C(=O)N1CCC[C@H]1C(=O)N[C@@H](CO)C(=O)N1CCC[C@H]1C(=O)N[C@H](C(=O)N1CCC[C@H]1C(=O)N[C@H](C(=O)NCC(=O)N[C@@H](CO)C(=O)N[C@@H](CC(N)=O)C(=O)N[C@H](C(=O)N[C@@H](Cc1ccc(O)cc1)C(N)=O)[C@@H](C)O)C(C)C)[C@@H](C)O
notes: also called 17R, 21P, 27P, 29P, 31P
B4: N^ε1-[2-[2-[2-[[(4S)-4-carboxy-4-(19-carboxynonadecanoylamino)butanoyl]amino]ethoxy]ethoxy]acetyl]-[Arg17,Pro21,Pro27,His34]-h-amylin (peptide)
peptide: K([AEEA-γGlu-C20 diacid])CNTATCATQRLANFLRHSSPNFGAIPSSTNVGHNTY-NH2
modifications: disulfide 2-7; N-terminus assumed
SMILES: CC[C@H](C)[C@H](NC(=O)[C@H](C)NC(=O)CNC(=O)[C@H](Cc1ccccc1)NC(=O)[C@H](CC(N)=O)NC(=O)[C@@H]1CCCN1C(=O)[C@H](CO)NC(=O)[C@H](CO)NC(=O)[C@H](Cc1c[nH]cn1)NC(=O)[C@H](CCCNC(=N)N)NC(=O)[C@H](CC(C)C)NC(=O)[C@H](Cc1ccccc1)NC(=O)[C@H](CC(N)=O)NC(=O)[C@H](C)NC(=O)[C@H](CC(C)C)NC(=O)[C@H](CCCNC(=N)N)NC(=O)[C@H](CCC(N)=O)NC(=O)[C@@H](NC(=O)[C@H](C)NC(=O)[C@@H]1CSSC[C@H](NC(=O)[C@@H](N)CCCCNC(=O)COCCOCCNC(=O)CC[C@H](NC(=O)CCCCCCCCCCCCCCCCCCC(=O)O)C(=O)O)C(=O)N[C@@H](CC(N)=O)C(=O)N[C@@H]([C@@H](C)O)C(=O)N[C@@H](C)C(=O)N[C@@H]([C@@H](C)O)C(=O)N1)[C@@H](C)O)C(=O)N1CCC[C@H]1C(=O)N[C@@H](CO)C(=O)N[C@@H](CO)C(=O)N[C@H](C(=O)N[C@@H](CC(N)=O)C(=O)N[C@H](C(=O)NCC(=O)N[C@@H](Cc1c[nH]cn1)C(=O)N[C@@H](CC(N)=O)C(=O)N[C@H](C(=O)N[C@@H](Cc1ccc(O)cc1)C(N)=O)[C@@H](C)O)C(C)C)[C@@H](C)O
notes: also called 17R, 21P, 27P, 34H
B5: N^ε1-[2-[2-[2-[[(4S)-4-carboxy-4-(19-carboxynonadecanoylamino)butanoyl]amino]ethoxy]ethoxy]acetyl]-[Arg17,Pro21,Pro27,Pro28,Pro34]-h-amylin (peptide)
peptide: K([AEEA-γGlu-C20 diacid])CNTATCATQRLANFLRHSSPNFGAIPPSTNVGPNTY-NH2
modifications: disulfide 2-7; N-terminus assumed
SMILES: CC[C@H](C)[C@H](NC(=O)[C@H](C)NC(=O)CNC(=O)[C@H](Cc1ccccc1)NC(=O)[C@H](CC(N)=O)NC(=O)[C@@H]1CCCN1C(=O)[C@H](CO)NC(=O)[C@H](CO)NC(=O)[C@H](Cc1c[nH]cn1)NC(=O)[C@H](CCCNC(=N)N)NC(=O)[C@H](CC(C)C)NC(=O)[C@H](Cc1ccccc1)NC(=O)[C@H](CC(N)=O)NC(=O)[C@H](C)NC(=O)[C@H](CC(C)C)NC(=O)[C@H](CCCNC(=N)N)NC(=O)[C@H](CCC(N)=O)NC(=O)[C@@H](NC(=O)[C@H](C)NC(=O)[C@@H]1CSSC[C@H](NC(=O)[C@@H](N)CCCCNC(=O)COCCOCCNC(=O)CC[C@H](NC(=O)CCCCCCCCCCCCCCCCCCC(=O)O)C(=O)O)C(=O)N[C@@H](CC(N)=O)C(=O)N[C@@H]([C@@H](C)O)C(=O)N[C@@H](C)C(=O)N[C@@H]([C@@H](C)O)C(=O)N1)[C@@H](C)O)C(=O)N1CCC[C@H]1C(=O)N1CCC[C@H]1C(=O)N[C@@H](CO)C(=O)N[C@H](C(=O)N[C@@H](CC(N)=O)C(=O)N[C@H](C(=O)NCC(=O)N1CCC[C@H]1C(=O)N[C@@H](CC(N)=O)C(=O)N[C@H](C(=O)N[C@@H](Cc1ccc(O)cc1)C(N)=O)[C@@H](C)O)C(C)C)[C@@H](C)O
notes: also called 17R, 21P, 27P, 28P, 34P
B6: N^ε1-[2-[2-[2-[[(4S)-4-carboxy-4-(19-carboxynonadecanoylamino)butanoyl]amino]ethoxy]ethoxy]acetyl]-[Arg17,Pro21,Pro27,Pro29,Pro34]-h-amylin (peptide)
peptide: K([AEEA-γGlu-C20 diacid])CNTATCATQRLANFLRHSSPNFGAIPSPTNVGPNTY-NH2
modifications: disulfide 2-7; N-terminus assumed
SMILES: CC[C@H](C)[C@H](NC(=O)[C@H](C)NC(=O)CNC(=O)[C@H](Cc1ccccc1)NC(=O)[C@H](CC(N)=O)NC(=O)[C@@H]1CCCN1C(=O)[C@H](CO)NC(=O)[C@H](CO)NC(=O)[C@H](Cc1c[nH]cn1)NC(=O)[C@H](CCCNC(=N)N)NC(=O)[C@H](CC(C)C)NC(=O)[C@H](Cc1ccccc1)NC(=O)[C@H](CC(N)=O)NC(=O)[C@H](C)NC(=O)[C@H](CC(C)C)NC(=O)[C@H](CCCNC(=N)N)NC(=O)[C@H](CCC(N)=O)NC(=O)[C@@H](NC(=O)[C@H](C)NC(=O)[C@@H]1CSSC[C@H](NC(=O)[C@@H](N)CCCCNC(=O)COCCOCCNC(=O)CC[C@H](NC(=O)CCCCCCCCCCCCCCCCCCC(=O)O)C(=O)O)C(=O)N[C@@H](CC(N)=O)C(=O)N[C@@H]([C@@H](C)O)C(=O)N[C@@H](C)C(=O)N[C@@H]([C@@H](C)O)C(=O)N1)[C@@H](C)O)C(=O)N1CCC[C@H]1C(=O)N[C@@H](CO)C(=O)N1CCC[C@H]1C(=O)N[C@H](C(=O)N[C@@H](CC(N)=O)C(=O)N[C@H](C(=O)NCC(=O)N1CCC[C@H]1C(=O)N[C@@H](CC(N)=O)C(=O)N[C@H](C(=O)N[C@@H](Cc1ccc(O)cc1)C(N)=O)[C@@H](C)O)C(C)C)[C@@H](C)O
notes: also called 17R, 21P, 27P, 29P, 34P

molecular target: T1, human amylin receptor; test: SPA competition binding, displacement of 125I-rat amylin from membranes with human amylin 3(a) receptor (Assay V)
Outline: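 One-site competition analysis of SPA counts yielded IC₅₀ as a measure of affinity. Membranes were at 35 ng/μL final; incubation was 120 min at 25° C, pH 7.4.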

| IC50 [nM] | Binder |
| --- | --- |
| 0.532 | B1 |
| 0.115 | B2 |
| 0.03 | B3 |
| 0.052 | K([AEEA-γGlu-C20 diacid])CNTATCATQRLANFLRHSSPNFGAIPPSTPVGSNTY-NH2 (disulfide 2-7, also called 17R, 21P, 27P, 28P, 31P) |
| 0.215 | B4 |
| 0.042 | B5 |
| 0.049 | B6 |
